Data: paper PMC3561363, “A Novel Retro-Inverso Peptide Inhibitor Reduces Amyloid Deposition, Oxidation and Inflammation and Stimulates Neurogenesis in the APPswe/PS1ΔE9 Mouse Model of Alzheimer’s Disease” (PLoS ONE, 2013)

Target: T1, Aβ(1–42) (UniProt P05067 672-713)
T1 construct: also called Aβ42; β-amyloid (Aβ) peptide; source: bought: rPeptide (recombinant Aβ42, Ultrapure)
Assay: SPR; Aβ42 fibrils immobilised by amine coupling on a COOH5 chip (~5,000 RU), Sensi Q; RI-OR2-TAT injected at 1, 3 and 6 µM in PBS with 0.005% Tween 20 for 5 min at 30 µl/min; empty reference surface subtracted; each concentration fitted separately, 1:1 Langmuir model; apparent
Settings: both partners purified

B1: RI-OR2-TAT (Ac-rGffvlkGrrrrqrrkkrGy-NH2) (peptide)
peptide: RGFFVLKGRRRRQRRKKRGY
HELM: PEPTIDE1{[ac].[dR].G.[dF].[dF].[dV].[dL].[dK].G.[dR].[dR].[dR].[dR].[dQ].[dR].[dR].[dK].[dK].[dR].G.[dY].[am]}$$$$V2.0
SMILES: CC(=O)N[C@H](CCCNC(=N)N)C(=O)NCC(=O)N[C@H](Cc1ccccc1)C(=O)N[C@H](Cc1ccccc1)C(=O)N[C@@H](C(=O)N[C@H](CC(C)C)C(=O)N[C@H](CCCCN)C(=O)NCC(=O)N[C@H](CCCNC(=N)N)C(=O)N[C@H](CCCNC(=N)N)C(=O)N[C@H](CCCNC(=N)N)C(=O)N[C@H](CCCNC(=N)N)C(=O)N[C@H](CCC(N)=O)C(=O)N[C@H](CCCNC(=N)N)C(=O)N[C@H](CCCNC(=N)N)C(=O)N[C@H](CCCCN)C(=O)N[C@H](CCCCN)C(=O)N[C@H](CCCNC(=N)N)C(=O)NCC(=O)N[C@H](Cc1ccc(O)cc1)C(N)=O)C(C)C
notes: source: synthetic peptide, custom made by Cambridge Peptides (>95% purity)
  Kd: 58 to 125 nM
  koff: 0.00037 s⁻¹
  kon: 3680 M⁻¹ s⁻¹
